Patent US20040101829A1, “Protein that interacts with lipids and methods for treating hyperlipidemia” (The University of Iowa Research Foundation, priority 2002, published 2004)

Experiments:
[1] = tested on: Huh-7 cells; assay: Cell binding assay by flow cytometry, Huh-7 cells; type: cell-based, human; conditions: 4° C.
Description: FIG. 3A; FIG. 3B; and FIG. 3C: Incubation of LDL enhanced binding of HCV E2. […] Cell-bound E2 was detected using a monoclonal antiE2 antibody (FIG. 3A and FIG. 3C) or a polyclonal anti-E2 serum (FIG. 3B).
(§1) MOLT-4 cells, a CD4^+ T lymphoblastoid cell line, and Huh7 cells of hepatocyte origin were obtained from ATCC (Manassas, Va.). Human foreskin fibroblasts (FSF) and LDLr-deficient foreskin fibroblasts (Null) from a patient with familial hypercholesterolemia (Hobbs et al., 1987) were kindly provided by Dr. Jheem Medh.
(§2) Recombinant HCV E2 protein or HIV-gp120-FITC, human, rabbit or bovine lipoproteins, HCV or mock virus preparations were added to cells for 60 min at 4° C. Cells were washed and incubated with ligand-specific antibody for 60 min at 4° C. Antibody binding was detected using goat anti-human IgG-Oregon green (10 μg/ml) for 45 min at 4° C. Cells were washed two times, fixed in PBS containing 4% paraformaldehyde, and analyzed by flow cytometry (FACScan, Becton Dickinson).

[2] = tested on: human LDL; assay: ELISA for E2-LDL interaction (anti-LDL McAb capture, anti-E2 McAb detection); type: binding
Description: FIG. 2: Interaction of E2 with LDL. Increasing amounts of LDL were incubated with purified E2 protein at 4° C. and allowed to bind to mouse monoclonal anti-apolipoprotein B antibody coated in ELISA plates. LDL bound E2 protein was detected with a monoclonal anti-E2 antibody, followed by an alkaline-phosphatase labeled secondary antibody and PNPP substrate. The subtracted blank consisted of E2 protein in the absence of LDL.
Microtiter plates were prepared by coating wells with 100 μl anti-LDL McAb (4 μg/ml in 100 mM bicarbonate buffer, pH 9.6) overnight (ON) at RT (Wuenschmann et al., 2000). […] Plates were washed twice with TBS followed by the addition of 100 μl of E2 protein or E2 protein with LDL in PBS. After ON incubation of samples at RT, plates were washed three times with TBS followed by the addition of anti HCV E2 McAb 108 (7.5 μg/ml). Plates were incubated for 1.5 h and washed three times with TBS; then 100 μl of anti-human IgG-alkaline phosphatase conjugate (Promega, Madison, Wis.) diluted 1/5,000 in BLOTTO was added for 1 h at RT washed four times with TBS, and incubated for 30 min with a 1-mg/ml solution of p-nitrophenyl phosphate (PNPP). Absorbance was measured at 405 nm with a multiwell plate reader. […]

[3] = tested on: MOLT-4 cells; assay: Cell binding assay by flow cytometry, MOLT-4 cells; type: cell-based, human
Description: as §1, §2
HCV-E2 was incubated with increasing concentrations of human LDL for one hour at 4° C. prior to the addition of proteins to MOLT-4 cells. Following one hour at 4° C., cells were washed and HCV E2 binding was detected by flow cytometry. […] The increase in E2 binding in the presence of LDL was seen when either the anti-HCV McAb or anti-HCV polyclonal anti-HCV were used for E2 detection (FIG. 3B). […] To determine if HCV E2 influenced binding of human LDL to MOLT-4 cells, HCV-E2 and fluorescently labeled LDL were incubated for one hour at 4° C. and added to MOLT-4 cells for an additional hour. Cells were washed and analyzed for labeled-LDL binding (FIG. 3E and FIG. 3F).

[4] = tested on: human fibroblasts that do not express the human LDLr (Null); assay: Cell binding assay by flow cytometry, LDLr-deficient fibroblasts (Null); type: cell-based
Description: (§3) FIG. 4D: Binding of recombinant HCV E2 and E2-LDL to human fibroblasts (FSF) and human fibroblasts negative for the human LDLr (Null). Cells were detached non-enzymatically and incubated with E2 or E2/LDL proteins. Cell-bound E2 was detected with monoclonal anti-E2 antibody 108, followed by incubation with a secondary fluorescent labeled anti-human IgG. Cells were analyzed by flow cytometry.
as §2
(§4) The increased level of binding of both proteins to MOLT-4 cells may be due to an association between LDL and HCV E2 that enables the resulting complex to bind to either the LDLr or to CD81. To evaluate this interaction further, mouse 3T3 cells expressing only murine CD81 or cells expressing both murine and human CD81 were studied. […] Therefore, the enhanced E2 binding following incubation with LDL appears to require human LDLr expression on the cell surface. […]

[5] = tested on: 3T3 cells expressing human CD81; assay: Cell binding assay by flow cytometry, mouse 3T3 cells with or without human CD81; type: cell-based
Description: FIG. 4B: Binding of recombinant HCV E2 to mouse 3T3 cells. Cells were detached non-enzymatically and incubated with recombinant E2 protein. Cell-bound E2 was detected with monoclonal anti-E2 antibody 108, followed by incubation with a secondary fluorescent labeled anti-human IgG. Cells were analyzed by flow cytometry.
FIG. 4C: Binding of HCV E2 and HCV-E2/LDL to mouse 3T3-human CD81 cells. Cells were detached non-enzymatically and incubated with E2 alone or E2/LDL. Cell-bound E2 was detected with monoclonal anti-E2 antibody 108, followed by incubation with a secondary fluorescent labeled anti-human IgG. Cells were analyzed by flow cytometry.
as §2
The increased level of binding of both proteins to MOLT-4 cells may be due to an association between LDL and HCV E2 that enables the resulting complex to bind to either the LDLr or to CD81. […]

[6] = tested on: normal human foreskin fibroblasts (FSF); assay: Cell binding assay by flow cytometry, human foreskin fibroblasts (FSF); type: cell-based
Description: as §3, §2, §4

B1: HCV E2: Purified recombinant HCV envelope glycoprotein E2 (Ala 384-Lys 715) expressed in CHO cells, obtained from Austral Biologicals (protein)
chain: ETHVTGGSAGHTVSGFVSLLAPGAKQNVQLINTNGSWHLNSTALNCNDSLNTGWLAGLFYHHKFNSSGCPERLASCRPLTDFDQGWGPISYANGSGPDQRPYCWHYPPKPCGIVPAKSVCGPVYCFTPSPVVVGTTDRSGAPTYSWGENDTDVFVLNNTRPPLGNWFGCTWMNSTGFTKVCGAPPCVIGGAGNNTLHCPTDCFRKHPDATYSRCGSGPWITPRCLVDYPYRLWHYPCTINYTIFKIRMYVGGVEHRLEAACNWTRGERCDLEDRDRSELSPLLLTTTQWQVLPCSFTTLPALSTGLIHLHQNIVDVQYLYGVGSSIASWAIK
Binding of E2 protein to Huh-7 cells after preincubation with human LDL [1]: increased binding of E2 protein | HCV E2 detected in ELISA with murine McAb against human LDL as capture antibody ([2]; E2 alone vs E2 with LDL): only detected when complexed with LDL | Extent of E2 captured in relation to LDL concentration ([2]; increasing amounts of LDL): directly correlated to the LDL concentration used | E2 binding to MOLT-4 cells ([3]; E2 alone, 4° C.): bound to MOLT-4 cells | Amount of labeled LDL bound to MOLT-4 cells after preincubation of LDL with HCV-E2 ([3]; LDL up to concentrations of 2.5 μg/ml, 4° C.): the amount of LDL bound increased | LDL concentration at which the increase in E2 binding was saturable ([3]; MOLT-4 cells, 4° C.): > 2.5 µg/mL | HCV E2 binding to MOLT-4 cells stripped of lipoproteins by dextran sulfate ([3]; cell bound bovine lipoproteins removed with dextran sulfate): decreased | Amount of E2 bound to MOLT-4 cells after incubation with lipoproteins ([3]; human VLDL, LDL and HDL, bovine lipoproteins): increased | Amount of cell-bound E2 on MOLT-4 cells after preincubation with apoprotein B ([3]; preincubation with apoprotein B (apoB100)): did not increase the amount of cell-bound E2 | Amount of E2 protein bound to MOLT-4 cells after addition of LDL ([3]; preincubation with human LDL one hour at 4° C.): increased the amount of E2 protein bound | E2 binding to Null fibroblasts ([4]; E2 alone): bound | Binding of E2-LDL complexes to Null cells compared with E2 alone ([4]; preincubation with LDL): equally to E2 alone | E2 binding to 3T3 cells ([5]; 3T3 cells expressing human CD81 vs control 3T3 cells): bound only to 3T3 cells expressing human CD81 | Amount of cell bound HCV E2 on 3T3-human CD81 cells after preincubation with LDL ([5]; preincubation with LDL): did not increase the amount of cell bound HCV E2 | E2 binding to FSF fibroblasts ([6]; E2 alone): bound | E2 binding to LDLr-expressing fibroblasts when preincubated with LDL ([6]; preincubation with LDL): increased binding
